Measured values taken from patent publication US20090075881A1.

Biological target: fibrinogen complex (FC) component of TISSEEL VH S/D
Test: SPR; FC coupled to sensor chip, PDGF-AB as analyte in PBS pH 7.4; KD = Koff/Kon by two methods

Kd: 342 nM
Substance: recombinant human PDGF-AB (from UniProt P04085 87-211; P01127 82-190) (ligand)
